The values below come from the domain aggregation screens of Martell et al. (2025).

This series is described as follows: soluble fraction after stress (log2 fold change); higher = more stays soluble; pooled small domains, quantitative proteomics. The settings on record: stress: pH 4. In a few lines:
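How much of each domain stays soluble after acid stress, expressed as a fold change, is used to gauge aggregation propensity. Pooled custom libraries of small domains underwent pH 4 stress before high-throughput quantitative proteomics. A higher log2 value means more of the domain stayed soluble.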
On to “HMDEARLAVASNLIRLRTDAGMTQAELGEKLNYSDKTISKWERAEAIPDAFVLKQIGELFHVSVDFLLRTH”, for which the “soluble fraction (log2)” value amounted to 0.1.

On to “HMDEDTWKLYKRAYKKYYARYMKGNMSEEAFKTWAAQAARDRDAAIEQVKAALDENLKAQVIERLKEELNR”, for which the “soluble fraction (log2)” value was 0.22. With “HMDEEEKGEVEVPNLIGLTRKEAKKTLEEEGLLIETKESLKTNLDDEYEKIKSQLPKAGIKIKQGSTVYVD”, the “soluble fraction (log2)” value was determined as 0.183. As to “HMDEGQEHYVKETDLPFYSEADPASSVIFPLVLNQKLIEKERKDDWIRALEPTTGLVGWVLLKSLSPQQLS”, the “soluble fraction (log2)” value was -1.59.

Consider “HMDEIELLLQDAIQKLPEKQRMVFTLRYYDNLPYEEISKILDMSVSTLKTNYHYAKSKIEQYILDHS”, for which the “soluble fraction (log2)” value is -0.839. Consider “HMDEKPPHEALSNREFQVLQLLAQGRSVGQIAQQLTLSANTISTYRARIFDKLGLHNPADLFSYAARHRLT”, for which the “soluble fraction (log2)” value was 0.111. In the case of “HMDELNFGNFEGTRIFVQRTARKKSIALSIRDGTIVILAPRHIPNQEIQELITTNTDWIRAKLSQHAETKR”, the “soluble fraction (log2)” value was -0.264. On to “HMDELVYVPNITGKTVEEARTELQKRDLGLNIAGHQFSDEFGKGRIISQDPAAGSRLKVNRSISVIVSSGQ”, for which the “soluble fraction (log2)” value stood at 0.00524.

Turning to “HMDENVVLRKVAREAFVIEYVRGIRAIDPGIGGPKLWLMYKREFGDNDTVGRDTFEDILDRNNLKVRI”, the “soluble fraction (log2)” value is -0.363. Consider “HMDEPADVAIFDGFRQMSEDELKKLYESLNLAMTFKDFLHIQNYFKNEENREPSVTEIRVLDTYWSDH”, for which the “soluble fraction (log2)” value was -0.321. On to “HMDEPVDRLSPREQEVLALMAEGRSNAAIAHRLSITEKAVAKHINSIFTKLDLPLDEDDHRRVRAVLAWLR”, for which the “soluble fraction (log2)” value is -0.464.

With “HMDESIPVITYKDSVYANPKAFADAHKLPYKSLHNALSKARKEGKVRFMYKQYNFHLDNNGYIVAVS”, the “soluble fraction (log2)” value was -0.195. As for “HMDESLLDYALREIKARIQNGTYPPGTKLSTQEISDSLGISRTPVVAAINRLVAQGVAEAIPRRGTIVAR”, the “soluble fraction (log2)” value was 0.015.

With “HMDETFTITFDPNGGTLNGSKTKTVSLGDIVYGKLPTASKTGYSFIGWFTEKEGGEQISSATKIIASDLTL”, the “soluble fraction (log2)” value was -0.204. Take “HMDETPESIFAKANELYPKYIKYFYTEQEYYSKVEEYINLYEFQKNSTYILGKDLEEFLEEYITNKQ”: the “soluble fraction (log2)” value was -1.51. Regarding “HMDEWDDGDKPKLKITLYADDDYYFASGFSKSSVSLSGSDGTVTSVSRSSSDTLIVYVTLDALD”, the “soluble fraction (log2)” value was -0.845. Turning to “HMDEYILTLDEVKELLKSKDYDDLKNVLKWSNKFQKDTIIQTAISEKVSDANVINIIKEITGQDITSLIV”, the “soluble fraction (log2)” value was -1.12.

Take “HMDEYTREQFVADMEEGRVREVTIHPNSEVPTGYIRVELANGADMKLYVTDIVEAEELVRSYGFDPPVRDV”: the “soluble fraction (log2)” value is -0.56. For “HMDFDFHALGREIKRKRKDKGWTQEYLAQLLDRTPRSIMYMENRGQHPSLNILFKIATLLEISIDQFFF”, the “soluble fraction (log2)” value amounted to 0.158. Turning to “HMDFDQELFDKIVEATMDEARAAMDTDDKNVREERWNKLIEHWHELFLEDYPEMDKYLEEITYKFQKNPAT”, the “soluble fraction (log2)” value was -1.23.

For the sequence “HMDFEVGTVKWFNTKKGYGFITRDQGEDIFVHFRNIKGQGRRSLSDGERVSFVVTHGDKGLQADQVSP”, the “soluble fraction (log2)” value was -1.18. For “HMDFFTAAPEEDEIGKRIDVYIAEYKEELSRSRVQKLIENGLVTVNGKAVKSNYKLRKGDILEVEIPDPE”, the “soluble fraction (log2)” value was -0.00543. With “HMDFGPDSAAPLADGSAPEGFDVKGNADSMLYHEPDGRWYDATVAEVWFRTAEAAQAAGFTKAGS” the figure was -2.02; with “HMDFNNQLKRIRESNGLTQEQLAKILNVSRQSISSWEVGRNFPDLEMIVIISKEFNISLDQLIMG”, -1.03; with “HMDFQTDVFISRFAELKKESGETNKDLQDVFELSLSALINYQTGKRIPDIAFLHKLAQHFGVSADYLLGLS”, -0.6. With “HMDFRQALNTSADSDANKVALLESIVKGKYVSSTVNLLRRVITLRRGRSIDATLAAYSHYVSIR” the figure was 0.385. Take “HMDFSVTIKGTSFPVMVSLKKMKQVRLKVFPSGEIKLSAPVGTPEKWIVEYLNDKMSWIEEKMDLFVQ”: the “soluble fraction (log2)” value is -0.395.
